The assay deals with endogenous AMPKα (5'-adenosine monophosphate-activated protein kinase, α subunit), Q13131. Nature of the assay: co-immunoprecipitation, quantified band intensity. The settings on record: chain shown with the change, n=2 (WT n=3), read off a plot.

In paper PMC10209092 one finds response (relative AMPK-ULK1 interaction) data, which are given here for 1 molecule.

endogenous AMPKα (5'-adenosine monophosphate-activated protein kinase, α subunit), Q13131, sequence (Q13131 whole entry): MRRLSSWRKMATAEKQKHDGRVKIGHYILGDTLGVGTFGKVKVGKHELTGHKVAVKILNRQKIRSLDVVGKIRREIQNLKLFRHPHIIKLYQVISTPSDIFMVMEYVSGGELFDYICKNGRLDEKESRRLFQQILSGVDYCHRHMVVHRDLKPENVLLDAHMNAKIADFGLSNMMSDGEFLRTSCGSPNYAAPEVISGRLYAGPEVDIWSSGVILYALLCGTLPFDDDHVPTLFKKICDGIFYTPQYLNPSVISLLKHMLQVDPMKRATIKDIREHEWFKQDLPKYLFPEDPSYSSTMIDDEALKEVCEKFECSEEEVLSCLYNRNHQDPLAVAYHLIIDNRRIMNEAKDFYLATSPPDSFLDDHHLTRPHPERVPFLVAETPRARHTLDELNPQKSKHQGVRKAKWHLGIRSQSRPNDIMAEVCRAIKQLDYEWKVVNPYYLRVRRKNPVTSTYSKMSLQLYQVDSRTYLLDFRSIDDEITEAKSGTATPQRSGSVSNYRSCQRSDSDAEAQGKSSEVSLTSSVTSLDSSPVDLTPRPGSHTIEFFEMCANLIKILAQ

B1: myc-tagged ULK1 (UNC-51 like kinase 1), wild type, O75385 S556A; T660A (protein)
chain: MEPGRGGTETVGKFEFSRKDLIGHGAFAVVFKGRHREKHDLEVAVKCINKKNLAKSQTLLGKEIKILKELKHENIVALYDFQEMANSVYLVMEYCNGGDLADYLHAMRTLSEDTIRLFLQQIAGAMRLLHSKGIIHRDLKPQNILLSNPAGRRANPNSIRVKIADFGFARYLQSNMMAATLCGSPMYMAPEVIMSQHYDGKADLWSIGTIVYQCLTGKAPFQASSPQDLRLFYEKNKTLVPTIPRETSAPLRQLLLALLQRNHKDRMDFDEFFHHPFLDASPSVRKSPPVPVPSYPSSGSGSSSSSSSTSHLASPPSLGEMQQLQKTLASPADTAGFLHSSRDSGGSKDSSCDTDDFVMVPAQFPGDLVAEAPSAKPPPDSLMCSGSSLVASAGLESHGRTPSPSPPCSSSPSPSGRAGPFSSSRCGASVPIPVPTQVQNYQRIERNLQSPTQFQTPRSSAIRRSGSTSPLGFARASPSPPAHAEHGGVLARKMSLGGGRPYTPSPQVGTIPERPGWSGTPSPQGAEMRGGRSPRPGSSAPEHSPRTSGLGCRLHAAPNLSDLHVVRPKLPKPPTDPLGAVFSPPQASPPQPSHGLQSCRNLRGSPKLPDFLQRNPLPPILGSPTKAVPSFDFPKTPSSQNLLALLARQGVVMTPPRNRALPDLSEVGPFHGQPLGPGLRPGEDPKGPFGRSFSTSRLTDLLLKAAFGTQAPDPGSTESLQEKPMEIAPSAGFGGSLHPGARAGGTSSPSPVVFTVGSPPSGSTPPQGPRTRMFSAGPTGSASSSARHLVPGPCSEAPAPELPAPGHGCSFADPITANLEGAVTFEAPDLPEETLMEQEHTEILRGLRFTLLFVQHVLEIAALKGSASEAAGGPEYQLQESVVADQISLLSREWGFAEQLVLYLKVAELLSSGLQSAIDQIRAGKLCLSSTVKQVVRRLNELYKASVVSCQGLSLRLQRFFLDKQRLLDRIHSITAERLIFSHAVQMVQSAALDEMFQHREGCVPRYHKALLLLEGLQHMLSDQADIENVTKCKLCIERRLSALLTGICA
Consider B1, for which the response (relative AMPK-ULK1 interaction) was 1 (amino acids +, A769662 +, parent: est. 1.2); 0.4 (amino acids +, A769662 -, parent: est. 1.0); 0.15 (amino acids -, A769662 +, parent: est. 1.1); 0.1 (amino acids -, A769662 -, parent: est. 0.25).
